B1: TPR t1 (parent)
chain: GACCAAUCUGCCCUCAGAGCUCGAGAACAUCUUCGGAUGCAGAGGAGGCAGGCUUCGGUGGCGCGAUAGCGCCAACGUCCUCAACCUCCAAUGCAUCCCACCACAUGAUGAUGCCUGAAGAGCCUUGGUUUUUUG

Variants of: B1
Experiment: polymerase ribozyme fitness, log enrichment relative to wild type (log ratio); higher = more active; in vitro selection for triplet polymerase activity
How it was run: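 In triplicate, a single round of in vitro selection was run on each mutant library, PCR-built and transcribed, covering one subunit of a heterodimeric triplet polymerase ribozyme. Frozen incubation at −7 °C followed annealing with a biotinylated primer, partner subunit and triplets, and extended constructs were then gel-excised, streptavidin-captured and taken through RT-PCR. Fitness is the logarithm of genotype enrichment over wild-type enrichment, from inverse-variance-weighted replicate averages of Illumina-sequenced inputs and outputs. […] only genotypes with ≥10 input reads and ≥1 read per output were kept.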

Variant | polymerase ribozyme fitness (log ratio)
U81A C89U | -0.112
A26U C62G C124A | -3.42
C49A C82U G93C C99U G122U | -3.82
G23C A26G C98U A105G C114G | -7.07
U9G C34A G120C | -0.929
G60U C104U U116A | -2.99
C8G C62A C94A G120U | 0.318
C3U C8G G10U G45C G71U C85A | -2.2
C13U C88A | -0.243
C56U C85G | -2.65
G69C C85U | -1.8
G52U G61C U130G | -1.58
G19U C123A | -2.59
C11U C22U | -4.2
G71A G120U | 0.349
A37G | -0.185
A37G C56U C102A | -1.87
G48A C72A | -0.519
C12G C72U U116A G120U | -0.787
C4G C12U C56A C70U A111C U126A | -3.03
C64U A66U C124A | 1.13

Variant | polymerase ribozyme fitness (log ratio)
G120C | 1.05
C73G G128A | -2.13
C40U A41C G71A | -2.9
C3U C11A U78A | -2.75
G47U G61A C123A | -0.25
A83G A84G C99U | -5.16
C11G G71A C89U G110U | -3.53
C3U U59C A111G G120U | -2.84
U9G G10C C11A C89U A103U U109A | -5.83
G51U C82A A95C C124U | -4.21
A37U A43C | -1.99
C31G U112A | -5.33
A46U A121C | 1.4
A18C A43U | 0.3
C101U U112C | 0.493
A37U G47U U55G C114U | -3.49
G63U G77U U78C | -2.41
C12A G61U U78A U96A | -1.84
A83C U126C | -1.26
U7C C72A A83G | -0.327
G71U G113C | -1.47

Variant | polymerase ribozyme fitness (log ratio)
G61U U81C C86G G113U A119U | -6.31
G45U G47A G63U C82G G93U G117C A119G | -7.49
U59A C62A A100C U106A C124G | -0.96
C79G C94G G113A | -5.05
C8U U32C C62A G117U | -2.35
U14A G19A G42U A43C C70A | -6.34
G48U C101U | -1.59
G63U C82A C104U A108C | -6.05
C8A C56A C70A C98U C123G | -1.64
C8U G39C | 0.0547
C53U C72U G77U C82G A111C | -1.23
C4A C70U | -1.71
C53A G117A | 0.856
G36C G60U A118U | -0.591
C8U G60C | 0.253
C28U G110A | 0.874
C13G | -1.53
G58U G69U C97A G120C | -1.35
A41U A66G G71C U78A | -5.05
C86G G128A | -2.15
U9G G65A C72G G122A C123G U129G | -5.67

Variant | polymerase ribozyme fitness (log ratio)
U9G U96G | -0.204
A50C C115U | -1.47
C8A C79G C85G | -2.78
U54G C56G C72A G93A | -4.53
G10A C56U A74C A75U G93U | -0.9
A41C G63C A90C C123G G128C | -3.12
A5C C53G U92G G117C U129C U133C | -5.53
C4G C12G G61C C79A C82A C124U | -3.71
C76U G135U | -1.08
C73A C114G U130A | -2.99
G52U G61C C123A | -0.217
G52A C82U | -0.917
C31U C72A | -4.11
A16G C86U | -1.54
A2U C13A C28U U112G | -6
U7G G51C U55C C73A | -3.19
U9C G42U C53G C56A C73A C88U | -1.43
C88A G113C G122A U129A | -5.29
C80U A121U | 1.34
C49A G51U C56A | -2.24
